B1: Pistol ribozyme (parent)
chain: GGGUCGUUGUUCCAUAAUCGCGUGGAUAUGGCACGCAAGUUUCUACCGGGCACCGUAAAUGUCCGACUGGAGCCGUUCGGGCGGCUAUAAACAGACCUCAGGCCCGAAGCGUGGCGGCACCUGCCGCCGGUGGUAAAAAAGAUCGGAAGAGCACACGUCU

Variants of: B1
Experiment: aptazyme ON/OFF ratio, guanine; higher = stronger switching; co-transcriptional cleavage with and without guanine

Row | Variant | aptazyme ON/OFF ratio
1 | GGGUCGUUCUAUUAUAAUCGCGUGGAUAUGGCACGCAAGUUUCUACCGGGCACCGUAAAUGUCCGACUGGAGCCGUUCGGGCGGCUAUAAACAGACCUCAGGCCCGAAGCGUGGCGGCACCUGCCGCCGGUGGUAAAAAAGAUCGGAAGAGCACACGUCU [G9C U11A C12U C13U] | 1.34
2 | GGGUCGUUCUAUAAUAAUCGCGUGGAUAUGGCACGCAAGUUUCUACCGGGCACCGUAAAUGUCCGACUGGAGCCGUUCGGGCGGCUAUAAACAGACCUCAGGCCCGAAGCGUGGCGGCACCUGCCGCCGGUGGUAAAAAAGAUCGGAAGAGCACACGUCU [G9C U11A C12U C13A] | 1.27
3 | GGGUCGUUCUAUGAUAAUCGCGUGGAUAUGGCACGCAAGUUUCUACCGGGCACCGUAAAUGUCCGACUGGAGCCGUUCGGGCGGCUAUAAACAGACCUCAGGCCCGAAGCGUGGCGGCACCUGCCGCCGGUGGUAAAAAAGAUCGGAAGAGCACACGUCU [G9C U11A C12U C13G] | 1.17
4 | GGGUCGUUCUACUAUAAUCGCGUGGAUAUGGCACGCAAGUUUCUACCGGGCACCGUAAAUGUCCGACUGGAGCCGUUCGGGCGGCUAUAAACAGACCUCAGGCCCGAAGCGUGGCGGCACCUGCCGCCGGUGGUAAAAAAGAUCGGAAGAGCACACGUCU [G9C U11A C13U] | 1.3
5 | GGGUCGUUCUACAAUAAUCGCGUGGAUAUGGCACGCAAGUUUCUACCGGGCACCGUAAAUGUCCGACUGGAGCCGUUCGGGCGGCUAUAAACAGACCUCAGGCCCGAAGCGUGGCGGCACCUGCCGCCGGUGGUAAAAAAGAUCGGAAGAGCACACGUCU [G9C U11A C13A] | 1.19
6 | GGGUCGUUCUACGAUAAUCGCGUGGAUAUGGCACGCAAGUUUCUACCGGGCACCGUAAAUGUCCGACUGGAGCCGUUCGGGCGGCUAUAAACAGACCUCAGGCCCGAAGCGUGGCGGCACCUGCCGCCGGUGGUAAAAAAGAUCGGAAGAGCACACGUCU [G9C U11A C13G] | 1.04
7 | GGGUCGUUCUACCAUAAUCGCGUGGAUAUGGCACGCAAGUUUCUACCGGGCACCGUAAAUGUCCGACUGGAGCCGUUCGGGCGGCUAUAAACAGACCUCAGGCCCGAAGCGUGGCGGCACCUGCCGCCGGUGGUAAAAAAGAUCGGAAGAGCACACGUCU [G9C U11A] | 1.78
8 | GGGUCGUUCUCCCAUAAUCGCGUGGAUAUGGCACGCAAGUUUCUACCGGGCACCGUAAAUGUCCGACUGGAGCCGUUCGGGCGGCUAUAAACAGACCUCAGGCCCGAAGCGUGGCGGCACCUGCCGCCGGUGGUAAAAAAGAUCGGAAGAGCACACGUCU [G9C U11C] | 1.18
9 | GGGUCGUUCGGUGAUAAUCGCGUGGAUAUGGCACGCAAGUUUCUACCGGGCACCGUAAAUGUCCGACUGGAGCCGUUCGGGCGGCUAUAAACAGACCUCAGGCCCGAAGCGUGGCGGCACCUGCCGCCGGUGGUAAAAAAGAUCGGAAGAGCACACGUCU [G9C U10G U11G C12U C13G] | 1.08
10 | GGGUCGUUCGGUUAUAAUCGCGUGGAUAUGGCACGCAAGUUUCUACCGGGCACCGUAAAUGUCCGACUGGAGCCGUUCGGGCGGCUAUAAACAGACCUCAGGCCCGAAGCGUGGCGGCACCUGCCGCCGGUGGUAAAAAAGAUCGGAAGAGCACACGUCU [G9C U10G U11G C12U C13U] | 1.05
11 | GGGUCGUUCGGUAAUAAUCGCGUGGAUAUGGCACGCAAGUUUCUACCGGGCACCGUAAAUGUCCGACUGGAGCCGUUCGGGCGGCUAUAAACAGACCUCAGGCCCGAAGCGUGGCGGCACCUGCCGCCGGUGGUAAAAAAGAUCGGAAGAGCACACGUCU [G9C U10G U11G C12U C13A] | 1.09
12 | GGGUCGUUCUCGCAUAAUCGCGUGGAUAUGGCACGCAAGUUUCUACCGGGCACCGUAAAUGUCCGACUGGAGCCGUUCGGGCGGCUAUAAACAGACCUCAGGCCCGAAGCGUGGCGGCACCUGCCGCCGGUGGUAAAAAAGAUCGGAAGAGCACACGUCU [G9C U11C C12G] | 1.22
13 | GGGUCGUUCUCACAUAAUCGCGUGGAUAUGGCACGCAAGUUUCUACCGGGCACCGUAAAUGUCCGACUGGAGCCGUUCGGGCGGCUAUAAACAGACCUCAGGCCCGAAGCGUGGCGGCACCUGCCGCCGGUGGUAAAAAAGAUCGGAAGAGCACACGUCU [G9C U11C C12A] | 1.25
14 | GGGUCGUUCUCAAAUAAUCGCGUGGAUAUGGCACGCAAGUUUCUACCGGGCACCGUAAAUGUCCGACUGGAGCCGUUCGGGCGGCUAUAAACAGACCUCAGGCCCGAAGCGUGGCGGCACCUGCCGCCGGUGGUAAAAAAGAUCGGAAGAGCACACGUCU [G9C U11C C12A C13A] | 1.12
15 | GGGUCGUUCUCAUAUAAUCGCGUGGAUAUGGCACGCAAGUUUCUACCGGGCACCGUAAAUGUCCGACUGGAGCCGUUCGGGCGGCUAUAAACAGACCUCAGGCCCGAAGCGUGGCGGCACCUGCCGCCGGUGGUAAAAAAGAUCGGAAGAGCACACGUCU [G9C U11C C12A C13U] | 1.16
16 | GGGUCGUUCUCAGAUAAUCGCGUGGAUAUGGCACGCAAGUUUCUACCGGGCACCGUAAAUGUCCGACUGGAGCCGUUCGGGCGGCUAUAAACAGACCUCAGGCCCGAAGCGUGGCGGCACCUGCCGCCGGUGGUAAAAAAGAUCGGAAGAGCACACGUCU [G9C U11C C12A C13G] | 1.09
17 | GGGUCGUUCUAACAUAAUCGCGUGGAUAUGGCACGCAAGUUUCUACCGGGCACCGUAAAUGUCCGACUGGAGCCGUUCGGGCGGCUAUAAACAGACCUCAGGCCCGAAGCGUGGCGGCACCUGCCGCCGGUGGUAAAAAAGAUCGGAAGAGCACACGUCU [G9C U11A C12A] | 1.34
18 | GGGUCGUUCUAGCAUAAUCGCGUGGAUAUGGCACGCAAGUUUCUACCGGGCACCGUAAAUGUCCGACUGGAGCCGUUCGGGCGGCUAUAAACAGACCUCAGGCCCGAAGCGUGGCGGCACCUGCCGCCGGUGGUAAAAAAGAUCGGAAGAGCACACGUCU [G9C U11A C12G] | 1.47

Row | Variant | aptazyme ON/OFF ratio
19 | GGGUCGUUCUAUCAUAAUCGCGUGGAUAUGGCACGCAAGUUUCUACCGGGCACCGUAAAUGUCCGACUGGAGCCGUUCGGGCGGCUAUAAACAGACCUCAGGCCCGAAGCGUGGCGGCACCUGCCGCCGGUGGUAAAAAAGAUCGGAAGAGCACACGUCU [G9C U11A C12U] | 1.53
20 | GGGUCGUUCUAGUAUAAUCGCGUGGAUAUGGCACGCAAGUUUCUACCGGGCACCGUAAAUGUCCGACUGGAGCCGUUCGGGCGGCUAUAAACAGACCUCAGGCCCGAAGCGUGGCGGCACCUGCCGCCGGUGGUAAAAAAGAUCGGAAGAGCACACGUCU [G9C U11A C12G C13U] | 1.22
21 | GGGUCGUUCUAGGAUAAUCGCGUGGAUAUGGCACGCAAGUUUCUACCGGGCACCGUAAAUGUCCGACUGGAGCCGUUCGGGCGGCUAUAAACAGACCUCAGGCCCGAAGCGUGGCGGCACCUGCCGCCGGUGGUAAAAAAGAUCGGAAGAGCACACGUCU [G9C U11A C12G C13G] | 1.24
22 | GGGUCGUUCUAGAAUAAUCGCGUGGAUAUGGCACGCAAGUUUCUACCGGGCACCGUAAAUGUCCGACUGGAGCCGUUCGGGCGGCUAUAAACAGACCUCAGGCCCGAAGCGUGGCGGCACCUGCCGCCGGUGGUAAAAAAGAUCGGAAGAGCACACGUCU [G9C U11A C12G C13A] | 1.2
23 | GGGUCGUUCGGAGAUAAUCGCGUGGAUAUGGCACGCAAGUUUCUACCGGGCACCGUAAAUGUCCGACUGGAGCCGUUCGGGCGGCUAUAAACAGACCUCAGGCCCGAAGCGUGGCGGCACCUGCCGCCGGUGGUAAAAAAGAUCGGAAGAGCACACGUCU [G9C U10G U11G C12A C13G] | 1.12
24 | GGGUCGUUCGGAAAUAAUCGCGUGGAUAUGGCACGCAAGUUUCUACCGGGCACCGUAAAUGUCCGACUGGAGCCGUUCGGGCGGCUAUAAACAGACCUCAGGCCCGAAGCGUGGCGGCACCUGCCGCCGGUGGUAAAAAAGAUCGGAAGAGCACACGUCU [G9C U10G U11G C12A C13A] | 1.11
25 | GGGUCGUUCGGAUAUAAUCGCGUGGAUAUGGCACGCAAGUUUCUACCGGGCACCGUAAAUGUCCGACUGGAGCCGUUCGGGCGGCUAUAAACAGACCUCAGGCCCGAAGCGUGGCGGCACCUGCCGCCGGUGGUAAAAAAGAUCGGAAGAGCACACGUCU [G9C U10G U11G C12A C13U] | 1.11
26 | GGGUCGUUCGGGUAUAAUCGCGUGGAUAUGGCACGCAAGUUUCUACCGGGCACCGUAAAUGUCCGACUGGAGCCGUUCGGGCGGCUAUAAACAGACCUCAGGCCCGAAGCGUGGCGGCACCUGCCGCCGGUGGUAAAAAAGAUCGGAAGAGCACACGUCU [G9C U10G U11G C12G C13U] | 1.1
27 | GGGUCGUUCGGGAAUAAUCGCGUGGAUAUGGCACGCAAGUUUCUACCGGGCACCGUAAAUGUCCGACUGGAGCCGUUCGGGCGGCUAUAAACAGACCUCAGGCCCGAAGCGUGGCGGCACCUGCCGCCGGUGGUAAAAAAGAUCGGAAGAGCACACGUCU [G9C U10G U11G C12G C13A] | 1.1
28 | GGGUCGUUCGGGGAUAAUCGCGUGGAUAUGGCACGCAAGUUUCUACCGGGCACCGUAAAUGUCCGACUGGAGCCGUUCGGGCGGCUAUAAACAGACCUCAGGCCCGAAGCGUGGCGGCACCUGCCGCCGGUGGUAAAAAAGAUCGGAAGAGCACACGUCU [G9C U10G U11G C12G C13G] | 1.13
29 | GGGUCGUUCGGCUAUAAUCGCGUGGAUAUGGCACGCAAGUUUCUACCGGGCACCGUAAAUGUCCGACUGGAGCCGUUCGGGCGGCUAUAAACAGACCUCAGGCCCGAAGCGUGGCGGCACCUGCCGCCGGUGGUAAAAAAGAUCGGAAGAGCACACGUCU [G9C U10G U11G C13U] | 1.13
30 | GGGUCGUUCGGCAAUAAUCGCGUGGAUAUGGCACGCAAGUUUCUACCGGGCACCGUAAAUGUCCGACUGGAGCCGUUCGGGCGGCUAUAAACAGACCUCAGGCCCGAAGCGUGGCGGCACCUGCCGCCGGUGGUAAAAAAGAUCGGAAGAGCACACGUCU [G9C U10G U11G C13A] | 1.09
31 | GGGUCGUUCGGCGAUAAUCGCGUGGAUAUGGCACGCAAGUUUCUACCGGGCACCGUAAAUGUCCGACUGGAGCCGUUCGGGCGGCUAUAAACAGACCUCAGGCCCGAAGCGUGGCGGCACCUGCCGCCGGUGGUAAAAAAGAUCGGAAGAGCACACGUCU [G9C U10G U11G C13G] | 1.12
32 | GGGUCGUUCGGUCAUAAUCGCGUGGAUAUGGCACGCAAGUUUCUACCGGGCACCGUAAAUGUCCGACUGGAGCCGUUCGGGCGGCUAUAAACAGACCUCAGGCCCGAAGCGUGGCGGCACCUGCCGCCGGUGGUAAAAAAGAUCGGAAGAGCACACGUCU [G9C U10G U11G C12U] | 1.13
33 | GGGUCGUUCGGGCAUAAUCGCGUGGAUAUGGCACGCAAGUUUCUACCGGGCACCGUAAAUGUCCGACUGGAGCCGUUCGGGCGGCUAUAAACAGACCUCAGGCCCGAAGCGUGGCGGCACCUGCCGCCGGUGGUAAAAAAGAUCGGAAGAGCACACGUCU [G9C U10G U11G C12G] | 1.16
34 | GGGUCGUUCUAAUAUAAUCGCGUGGAUAUGGCACGCAAGUUUCUACCGGGCACCGUAAAUGUCCGACUGGAGCCGUUCGGGCGGCUAUAAACAGACCUCAGGCCCGAAGCGUGGCGGCACCUGCCGCCGGUGGUAAAAAAGAUCGGAAGAGCACACGUCU [G9C U11A C12A C13U] | 1.3
35 | GGGUCGUUCUAAAAUAAUCGCGUGGAUAUGGCACGCAAGUUUCUACCGGGCACCGUAAAUGUCCGACUGGAGCCGUUCGGGCGGCUAUAAACAGACCUCAGGCCCGAAGCGUGGCGGCACCUGCCGCCGGUGGUAAAAAAGAUCGGAAGAGCACACGUCU [G9C U11A C12A C13A] | 1.26
36 | GGGUCGUUCUAAGAUAAUCGCGUGGAUAUGGCACGCAAGUUUCUACCGGGCACCGUAAAUGUCCGACUGGAGCCGUUCGGGCGGCUAUAAACAGACCUCAGGCCCGAAGCGUGGCGGCACCUGCCGCCGGUGGUAAAAAAGAUCGGAAGAGCACACGUCU [G9C U11A C12A C13G] | 1.12

Source: the RNAGym collection of RNA variant scans (doi:10.1021/acssynbio.7b00057)
